# B1: GpH7-B3 variant K334_01G/GpL16-k0 (antibody, human IgG1, kappa)
# heavy: not shown
# light: DIVMTQSPLSLPVTPGEPASISCQASESLVHSNRNTYLHWYLQKPGQSPQLLIYKVSNRFSGVPDRFSGSGSGTDFTLKISRVEAEDVGVYYCSQNTHVPPTFGQGTKVEIERTVAAPSVFIFPPSDEQLKSGTASVVCLLNNFYPREAKVQWKVDNALQSGNSQESVTEQDSKDSTYSLSSTLTLSKADYEKHKVYACEVTHQGLSSPVTKSFNRGEC
# notes: homodimerized antibody, mutation in both H chains; also called K334_01G Ho Ab
# B2: GpH7-B3 variant I336_15Y/GpL16-k0 (antibody, human IgG1, kappa)
# heavy: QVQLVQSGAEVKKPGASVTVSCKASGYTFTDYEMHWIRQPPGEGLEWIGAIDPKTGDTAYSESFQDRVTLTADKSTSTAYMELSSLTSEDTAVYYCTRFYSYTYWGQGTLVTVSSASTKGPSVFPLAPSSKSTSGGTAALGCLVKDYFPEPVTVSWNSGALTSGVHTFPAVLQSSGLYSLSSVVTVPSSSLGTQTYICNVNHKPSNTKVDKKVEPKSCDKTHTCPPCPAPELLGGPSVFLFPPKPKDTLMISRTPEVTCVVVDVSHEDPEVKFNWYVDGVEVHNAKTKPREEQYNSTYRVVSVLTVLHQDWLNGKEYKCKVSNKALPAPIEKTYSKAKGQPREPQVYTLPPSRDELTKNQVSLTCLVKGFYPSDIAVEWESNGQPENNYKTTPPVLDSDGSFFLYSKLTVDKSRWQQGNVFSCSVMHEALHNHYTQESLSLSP
# light: B1 light
# notes: homodimerized antibody, mutation in both H chains; also called I336_15Y Ho Ab
# B3: GpH7-B3 variant I336_16H/GpL16-k0 (antibody, human IgG1, kappa)
# heavy: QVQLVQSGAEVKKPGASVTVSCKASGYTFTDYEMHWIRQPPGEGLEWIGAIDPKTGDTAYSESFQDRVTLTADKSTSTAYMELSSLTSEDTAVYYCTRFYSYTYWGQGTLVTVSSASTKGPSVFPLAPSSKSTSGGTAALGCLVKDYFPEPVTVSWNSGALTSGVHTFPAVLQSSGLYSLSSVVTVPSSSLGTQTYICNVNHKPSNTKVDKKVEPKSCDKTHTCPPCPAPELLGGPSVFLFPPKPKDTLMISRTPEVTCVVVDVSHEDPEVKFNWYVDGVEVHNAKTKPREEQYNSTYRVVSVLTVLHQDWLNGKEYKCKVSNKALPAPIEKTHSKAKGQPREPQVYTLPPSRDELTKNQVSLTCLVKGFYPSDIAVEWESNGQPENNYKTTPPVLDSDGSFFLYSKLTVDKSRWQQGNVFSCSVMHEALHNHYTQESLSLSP
# light: B1 light
# notes: homodimerized antibody, mutation in both H chains; also called I336_16H Ho Ab
# B4: GpH7-B3 variant K326_03V/GpL16-k0 (antibody, human IgG1, kappa)
# heavy: not shown
# light: B1 light
# notes: homodimerized antibody, mutation in both H chains; also called K326_03V Ho Ab
# B5: GpH7-B3 variant K326_04F/GpL16-k0 (antibody, human IgG1, kappa)
# heavy: not shown
# light: B1 light
# notes: homodimerized antibody, mutation in both H chains; also called K326_04F Ho Ab
# B6: GpH7-B3 variant K326_06M/GpL16-k0 (antibody, human IgG1, kappa)
# heavy: not shown
# light: B1 light
# notes: homodimerized antibody, mutation in both H chains; also called K326_06M Ho Ab
# B7: GpH7-B3 variant K326_07I/GpL16-k0 (antibody, human IgG1, kappa)
# heavy: not shown
# light: B1 light
# notes: homodimerized antibody, mutation in both H chains; also called K326_07I Ho Ab
# B8: GpH7-B3 variant K326_08L/GpL16-k0 (antibody, human IgG1, kappa)
# heavy: not shown
# light: B1 light
# notes: homodimerized antibody, mutation in both H chains; also called K326_08L Ho Ab
# B9: GpH7-B3 variant K326_09D/GpL16-k0 (antibody, human IgG1, kappa)
# heavy: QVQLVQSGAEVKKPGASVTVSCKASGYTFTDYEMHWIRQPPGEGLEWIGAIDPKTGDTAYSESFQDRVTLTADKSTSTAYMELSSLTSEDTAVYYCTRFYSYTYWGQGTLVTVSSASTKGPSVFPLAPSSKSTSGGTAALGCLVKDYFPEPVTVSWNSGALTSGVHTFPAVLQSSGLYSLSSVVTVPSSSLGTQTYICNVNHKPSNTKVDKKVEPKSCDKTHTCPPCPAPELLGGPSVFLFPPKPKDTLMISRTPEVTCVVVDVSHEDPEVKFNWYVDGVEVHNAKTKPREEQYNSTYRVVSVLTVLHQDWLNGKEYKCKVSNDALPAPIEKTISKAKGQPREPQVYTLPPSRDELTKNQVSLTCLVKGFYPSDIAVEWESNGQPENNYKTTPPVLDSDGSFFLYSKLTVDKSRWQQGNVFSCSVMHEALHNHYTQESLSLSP
# light: B1 light
# notes: homodimerized antibody, mutation in both H chains; also called K326_09D Ho Ab
# B10: GpH7-B3 variant K326_10E/GpL16-k0 (antibody, human IgG1, kappa)
# heavy: not shown
# light: B1 light
# notes: homodimerized antibody, mutation in both H chains; also called K326_10E Ho Ab
# B11: GpH7-B3 variant K326_19Q/GpL16-k0 (antibody, human IgG1, kappa)
# heavy: not shown
# light: B1 light
# notes: homodimerized antibody, mutation in both H chains; also called K326_19Q Ho Ab
# B12: GpH7-B3 variant K326_20W/GpL16-k0 (antibody, human IgG1, kappa)
# heavy: not shown
# light: B1 light
# notes: homodimerized antibody, mutation in both H chains; also called K326_20W Ho Ab
# B13: GpH7-B3 variant K334_02A/GpL16-k0 (antibody, human IgG1, kappa)
# heavy: not shown
# light: B1 light
# notes: homodimerized antibody, mutation in both H chains; also called K334_02A Ho Ab
# B14: GpH7-B3 variant K334_03V/GpL16-k0 (antibody, human IgG1, kappa)
# heavy: not shown
# light: B1 light
# notes: homodimerized antibody, mutation in both H chains; also called K334_03V Ho Ab
# B15: GpH7-B3 variant K334_04F/GpL16-k0 (antibody, human IgG1, kappa)
# heavy: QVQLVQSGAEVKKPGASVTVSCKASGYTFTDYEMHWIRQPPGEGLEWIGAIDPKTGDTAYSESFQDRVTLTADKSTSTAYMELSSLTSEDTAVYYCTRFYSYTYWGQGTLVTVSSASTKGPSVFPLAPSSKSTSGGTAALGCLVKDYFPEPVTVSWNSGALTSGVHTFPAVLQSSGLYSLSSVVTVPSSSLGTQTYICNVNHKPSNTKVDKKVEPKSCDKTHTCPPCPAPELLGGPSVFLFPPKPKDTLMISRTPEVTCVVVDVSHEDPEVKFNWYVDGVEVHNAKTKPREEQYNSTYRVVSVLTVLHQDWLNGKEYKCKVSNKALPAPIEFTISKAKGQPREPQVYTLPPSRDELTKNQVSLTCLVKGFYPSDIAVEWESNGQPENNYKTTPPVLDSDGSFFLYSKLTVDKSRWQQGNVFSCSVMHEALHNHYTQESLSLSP
# light: B1 light
# notes: homodimerized antibody, mutation in both H chains; also called K334_04F Ho Ab
# B16: GpH7-B3 variant K334_05P/GpL16-k0 (antibody, human IgG1, kappa)
# heavy: not shown
# light: B1 light
# notes: homodimerized antibody, mutation in both H chains; also called K334_05P Ho Ab
# B17: GpH7-B3 variant K334_07I/GpL16-k0 (antibody, human IgG1, kappa)
# heavy: not shown
# light: B1 light
# notes: homodimerized antibody, mutation in both H chains; also called K334_07I Ho Ab
# B18: GpH7-B3 variant K334_08L/GpL16-k0 (antibody, human IgG1, kappa)
# heavy: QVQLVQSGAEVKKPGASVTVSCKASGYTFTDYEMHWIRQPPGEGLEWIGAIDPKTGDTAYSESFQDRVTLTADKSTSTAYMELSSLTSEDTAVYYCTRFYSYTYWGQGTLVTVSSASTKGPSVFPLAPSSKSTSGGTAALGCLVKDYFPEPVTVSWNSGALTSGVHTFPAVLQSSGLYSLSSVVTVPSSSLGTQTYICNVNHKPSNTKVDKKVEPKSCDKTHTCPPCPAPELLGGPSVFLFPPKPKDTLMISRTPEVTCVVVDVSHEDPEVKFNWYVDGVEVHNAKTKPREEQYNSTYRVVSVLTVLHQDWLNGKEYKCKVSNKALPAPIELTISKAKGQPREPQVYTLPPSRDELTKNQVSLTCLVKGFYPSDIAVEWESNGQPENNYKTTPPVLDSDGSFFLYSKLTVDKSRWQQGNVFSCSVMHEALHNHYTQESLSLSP
# light: B1 light
# notes: homodimerized antibody, mutation in both H chains; also called K334_08L Ho Ab
# B19: GpH7-B3 variant K334_09D/GpL16-k0 (antibody, human IgG1, kappa)
# heavy: not shown
# light: B1 light
# notes: homodimerized antibody, mutation in both H chains; also called K334_09D Ho Ab
# B20: GpH7-B3 variant K334_13S/GpL16-k0 (antibody, human IgG1, kappa)
# heavy: not shown
# light: B1 light
# notes: homodimerized antibody, mutation in both H chains; also called K334_13S Ho Ab
# B21: GpH7-B3 variant K334_14T/GpL16-k0 (antibody, human IgG1, kappa)
# heavy: not shown
# light: B1 light
# notes: homodimerized antibody, mutation in both H chains; also called K334_14T Ho Ab
# B22: GpH7-B3 variant K334_15Y/GpL16-k0 (antibody, human IgG1, kappa)
# heavy: not shown
# light: B1 light
# notes: homodimerized antibody, mutation in both H chains; also called K334_15Y Ho Ab
# B23: GpH7-B3 variant K334_16H/GpL16-k0 (antibody, human IgG1, kappa)
# heavy: not shown
# light: B1 light
# notes: homodimerized antibody, mutation in both H chains; also called K334_16H Ho Ab
# B24: GpH7-B3 variant K334_18N/GpL16-k0 (antibody, human IgG1, kappa)
# heavy: not shown
# light: B1 light
# notes: homodimerized antibody, mutation in both H chains; also called K334_18N Ho Ab
# B25: GpH7-B3 variant K334_19Q/GpL16-k0 (antibody, human IgG1, kappa)
# heavy: not shown
# light: B1 light
# notes: homodimerized antibody, mutation in both H chains; also called K334_19Q Ho Ab
# B26: GpH7-B3 variant L328_15Y/GpL16-k0 (antibody, human IgG1, kappa)
# heavy: not shown
# light: B1 light
# notes: homodimerized antibody, mutation in both H chains; also called L328_15Y Ho Ab
# B27: GpH7-B3 variant P271_01G/GpL16-k0 (antibody, human IgG1, kappa)
# heavy: not shown
# light: B1 light
# notes: homodimerized antibody, mutation in both H chains; also called P271_01G Ho Ab
# B28: GpH7-B3 variant P271_08L/GpL16-k0 (antibody, human IgG1, kappa)
# heavy: not shown
# light: B1 light
# notes: homodimerized antibody, mutation in both H chains; also called P271_08L Ho Ab
# B29: GpH7-B3 variant P271_10E/GpL16-k0 (antibody, human IgG1, kappa)
# heavy: not shown
# light: B1 light
# notes: homodimerized antibody, mutation in both H chains; also called P271_10E Ho Ab
# B30: GpH7-B3 variant P271_18N/GpL16-k0 (antibody, human IgG1, kappa)
# heavy: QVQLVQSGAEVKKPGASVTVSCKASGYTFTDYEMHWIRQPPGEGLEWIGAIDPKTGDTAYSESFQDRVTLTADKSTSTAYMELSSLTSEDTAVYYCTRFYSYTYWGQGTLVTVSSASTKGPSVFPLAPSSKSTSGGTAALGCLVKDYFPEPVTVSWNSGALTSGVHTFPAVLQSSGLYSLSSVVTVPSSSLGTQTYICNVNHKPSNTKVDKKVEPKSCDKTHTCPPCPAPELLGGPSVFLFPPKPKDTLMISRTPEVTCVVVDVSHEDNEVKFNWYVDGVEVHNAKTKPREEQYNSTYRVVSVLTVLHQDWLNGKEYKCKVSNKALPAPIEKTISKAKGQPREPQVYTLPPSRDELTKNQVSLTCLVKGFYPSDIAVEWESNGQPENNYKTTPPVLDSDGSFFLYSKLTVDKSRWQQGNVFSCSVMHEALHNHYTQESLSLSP
# light: B1 light
# notes: homodimerized antibody, mutation in both H chains; also called P271_18N Ho Ab
# B31: GpH7-B3 variant P271_19Q/GpL16-k0 (antibody, human IgG1, kappa)
# heavy: not shown
# light: B1 light
# notes: homodimerized antibody, mutation in both H chains; also called P271_19Q Ho Ab
# B32: GpH7-B3 variant Q295_10E/GpL16-k0 (antibody, human IgG1, kappa)
# heavy: not shown
# light: B1 light
# notes: homodimerized antibody, mutation in both H chains; also called Q295_10E Ho Ab
# B33: GpH7-B3 variant Q295_12R/GpL16-k0 (antibody, human IgG1, kappa)
# heavy: not shown
# light: B1 light
# notes: homodimerized antibody, mutation in both H chains; also called Q295_12R Ho Ab
# B34: GpH7-B3 variant S239_10E/GpL16-k0 (antibody, human IgG1, kappa)
# heavy: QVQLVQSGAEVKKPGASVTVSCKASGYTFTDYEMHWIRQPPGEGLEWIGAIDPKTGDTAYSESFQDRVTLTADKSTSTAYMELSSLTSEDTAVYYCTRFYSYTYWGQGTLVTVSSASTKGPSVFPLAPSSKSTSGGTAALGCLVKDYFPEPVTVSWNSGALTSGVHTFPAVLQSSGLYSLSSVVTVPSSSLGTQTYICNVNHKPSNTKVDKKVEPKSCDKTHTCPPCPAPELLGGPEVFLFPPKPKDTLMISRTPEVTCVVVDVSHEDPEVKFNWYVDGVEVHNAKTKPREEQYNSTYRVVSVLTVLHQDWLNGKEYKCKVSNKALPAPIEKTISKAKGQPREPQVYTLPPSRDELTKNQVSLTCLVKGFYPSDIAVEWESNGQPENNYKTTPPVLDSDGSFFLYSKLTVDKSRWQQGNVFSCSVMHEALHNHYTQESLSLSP
# light: B1 light
# notes: homodimerized antibody, mutation in both H chains; also called S239_10E Ho Ab
# B35: GpH7-B3 variant S267_06M/GpL16-k0 (antibody, human IgG1, kappa)
# heavy: not shown
# light: B1 light
# notes: homodimerized antibody, mutation in both H chains; also called S267_06M Ho Ab
# B36: GpH7-B3 variant S267_10E/GpL16-k0 (antibody, human IgG1, kappa)
# heavy: not shown
# light: B1 light
# notes: homodimerized antibody, mutation in both H chains; also called S267_10E Ho Ab
# B37: GpH7-B3 variant S267_14T/GpL16-k0 (antibody, human IgG1, kappa)
# heavy: not shown
# light: B1 light
# notes: homodimerized antibody, mutation in both H chains; also called S267_14T Ho Ab
# B38: GpH7-B3 variant S267_18N/GpL16-k0 (antibody, human IgG1, kappa)
# heavy: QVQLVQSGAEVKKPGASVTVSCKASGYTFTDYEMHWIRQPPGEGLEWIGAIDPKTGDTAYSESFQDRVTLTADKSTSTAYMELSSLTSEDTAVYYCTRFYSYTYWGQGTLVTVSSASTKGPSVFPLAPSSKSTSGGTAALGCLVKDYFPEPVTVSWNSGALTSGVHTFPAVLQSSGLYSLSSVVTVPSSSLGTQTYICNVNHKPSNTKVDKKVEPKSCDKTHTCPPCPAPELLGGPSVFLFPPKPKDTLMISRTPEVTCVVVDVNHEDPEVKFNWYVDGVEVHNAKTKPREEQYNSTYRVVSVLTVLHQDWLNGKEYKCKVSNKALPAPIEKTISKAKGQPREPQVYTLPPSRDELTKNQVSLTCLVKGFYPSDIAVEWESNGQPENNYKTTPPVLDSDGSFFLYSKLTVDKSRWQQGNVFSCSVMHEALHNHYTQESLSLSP
# light: B1 light
# notes: homodimerized antibody, mutation in both H chains; also called S267_18N Ho Ab
# B39: GpH7-B3 variant S267_19Q/GpL16-k0 (antibody, human IgG1, kappa)
# heavy: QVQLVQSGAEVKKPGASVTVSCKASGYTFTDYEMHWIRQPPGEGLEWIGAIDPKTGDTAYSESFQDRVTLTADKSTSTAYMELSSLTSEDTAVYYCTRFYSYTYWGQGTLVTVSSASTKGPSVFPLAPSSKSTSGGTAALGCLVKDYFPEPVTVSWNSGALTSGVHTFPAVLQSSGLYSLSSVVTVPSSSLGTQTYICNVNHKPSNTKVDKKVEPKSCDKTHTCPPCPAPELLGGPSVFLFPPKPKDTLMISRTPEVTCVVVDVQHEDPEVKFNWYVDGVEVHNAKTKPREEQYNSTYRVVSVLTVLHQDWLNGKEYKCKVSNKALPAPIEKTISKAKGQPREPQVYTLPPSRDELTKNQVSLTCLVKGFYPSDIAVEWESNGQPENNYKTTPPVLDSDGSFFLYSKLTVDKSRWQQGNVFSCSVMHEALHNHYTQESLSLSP
# light: B1 light
# notes: homodimerized antibody, mutation in both H chains; also called S267_19Q Ho Ab
# B40: GpH7-B3 variant S298_09D/GpL16-k0 (antibody, human IgG1, kappa)
# heavy: not shown
# light: B1 light
# notes: homodimerized antibody, mutation in both H chains; also called S298_09D Ho Ab
# B41: GpH7-B3 variant S324_09D/GpL16-k0 (antibody, human IgG1, kappa)
# heavy: not shown
# light: B1 light
# notes: homodimerized antibody, mutation in both H chains; also called S324_09D Ho Ab
# B42: GpH7-B3 variant S324_10E/GpL16-k0 (antibody, human IgG1, kappa)
# heavy: not shown
# light: B1 light
# notes: homodimerized antibody, mutation in both H chains; also called S324_10E Ho Ab
# B43: GpH7-B3 variant S337_11K/GpL16-k0 (antibody, human IgG1, kappa)
# heavy: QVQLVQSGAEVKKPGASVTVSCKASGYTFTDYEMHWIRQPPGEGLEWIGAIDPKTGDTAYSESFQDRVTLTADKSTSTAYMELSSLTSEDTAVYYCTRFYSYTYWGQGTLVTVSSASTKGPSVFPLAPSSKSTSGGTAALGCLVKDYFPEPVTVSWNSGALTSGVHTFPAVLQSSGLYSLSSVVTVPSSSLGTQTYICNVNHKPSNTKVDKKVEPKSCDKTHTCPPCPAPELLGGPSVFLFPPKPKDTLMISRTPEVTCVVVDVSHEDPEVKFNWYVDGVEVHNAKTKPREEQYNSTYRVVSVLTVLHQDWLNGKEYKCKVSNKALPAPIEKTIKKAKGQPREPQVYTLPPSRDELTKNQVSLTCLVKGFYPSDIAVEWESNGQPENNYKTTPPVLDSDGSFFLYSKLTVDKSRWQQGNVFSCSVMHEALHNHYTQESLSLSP
# light: B1 light
# notes: homodimerized antibody, mutation in both H chains; also called S337_11K Ho Ab
# B44: GpH7-B3 variant S337_14T/GpL16-k0 (antibody, human IgG1, kappa)
# heavy: not shown
# light: B1 light
# notes: homodimerized antibody, mutation in both H chains; also called S337_14T Ho Ab
# Target: T1, FcγRIa extracellular domain with C-terminal His tag (human, UniProt P12314 16-292)
# T1 construct: extracellular domain; soluble analyte in Biacore; also called FcgRI; CD64
# T1 sequence (P12314 16-292): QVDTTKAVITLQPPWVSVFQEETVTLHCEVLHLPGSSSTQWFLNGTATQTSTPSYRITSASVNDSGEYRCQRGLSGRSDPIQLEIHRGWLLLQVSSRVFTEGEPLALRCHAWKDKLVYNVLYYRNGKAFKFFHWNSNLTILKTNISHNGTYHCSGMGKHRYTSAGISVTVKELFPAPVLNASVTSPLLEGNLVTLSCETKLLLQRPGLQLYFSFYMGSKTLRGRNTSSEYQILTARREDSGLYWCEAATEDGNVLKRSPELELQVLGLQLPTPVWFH
# Assay: SPR (Biacore), relative FcγRIa binding, GpH7-B3/GpL16-k0 (HoCon Ab) = 100
row,Binder,Ho/Con_1a
1,B1,106 % of control
2,B2,110 % of control
3,B3,114 % of control
4,B4,103 % of control
5,B5,102 % of control
6,B6,104 % of control
7,B7,102 % of control
8,B8,101 % of control
9,B9,106 % of control
10,B10,105 % of control
11,B11,105 % of control
12,B12,104 % of control
13,B13,106 % of control
14,B14,105 % of control
15,B15,106 % of control
16,B16,106 % of control
17,B17,107 % of control
18,B18,108 % of control
19,B19,108 % of control
20,B20,106 % of control
21,B21,106 % of control
22,B22,107 % of control

row,Binder,Ho/Con_1a
1,B23,106 % of control
2,B24,108 % of control
3,B25,106 % of control
4,B26,104 % of control
5,B27,106 % of control
6,B28,103 % of control
7,B29,103 % of control
8,B30,103 % of control
9,B31,104 % of control
10,B32,105 % of control
11,B33,101 % of control
12,B34,106 % of control
13,B35,106 % of control
14,B36,107 % of control
15,B37,107 % of control
16,B38,107 % of control
17,B39,104 % of control
18,B40,106 % of control
19,B41,106 % of control
20,B42,106 % of control
21,B43,105 % of control
22,B44,106 % of control
